From article PMC13635227 (Nature Communications, 2026)
The star is where a group is joined. Biotin = O=C1N[C@H]2[C@H](CS[C@H]2CCCCC(=O)*)N1; AEEA = NCCOCCOCC(=O)O

Columns and labels:
Experiment in all cases: BLI
[1] = molecular target: T1, Biotin-PEG-EAEEPSLLKKLLLAPANTQ-NH2 (LXXLL motif peptide, amino acids 135-153 of PPAR coactivator 1α, PGC-1α) (SMILES …)
T1 peptide: {Biotin-AEEA}-EAEEPSLLKKLLLAPANTQ-NH2

[2] = molecular target: T1, Biotin-PEG-EAEEPSLLKKLLLAPANTQ-NH2 …
[3] = molecular target: T1, Biotin-PEG-EAEEPSLLKKLLLAPANTQ-NH2 …

- EC50 of ciprofibrate (small-molecule ligand of PPAR-α) in promoting the binding [1]: 5.4 µM
- EC50 of palmitic acid (small-molecule ligand of PPAR-α) in promoting the binding [2]: 190 µM
- EC50 of TFA (small-molecule ligand of PPAR-α) in promoting the binding [3]: 4900 µM
B1: Full-length mouse PPAR-α (peroxisome proliferator-activated receptor α), tag-free (natural protein, UniProt P23204 1-468, looked up)
chain: MVDTESPICPLSPLEADDLESPLSEEFLQEMGNIQEISQSIGEESSGSFGFADYQYLGSCPGSEGSVITDTLSPASSPSSVSCPVIPASTDESPGSALNIECRICGDKASGYHYGVHACEGCKGFFRRTIRLKLVYDKCDRSCKIQKKNRNKCQYCRFHKCLSVGMSHNAIRFGRMPRSEKAKLKAEILTCEHDLKDSETADLKSLGKRIHEAYLKNFNMNKVKARVILAGKTSNNPPFVIHDMETLCMAEKTLVAKMVANGVEDKEAEVRFFHCCQCMSVETVTELTEFAKAIPGFANLDLNDQVTLLKYGVYEAIFTMLSSLMNKDGMLIAYGNGFITREFLKNLRKPFCDIMEPKFDFAMKFNALELDDSDISLFVAAIICCGDRPGLLNIGYIEKLQEGIVHVLKLHLQSNHPDDTFLFPKLLQKMVDLRQLVTEHAQLVQVIKKTESDAALHPLLQEIYRDMY
